Patent US7199218B1, “ICBP90 polypeptide and its fragments and polynucleotides coding for said polypeptides and applications for diagnosing and treating cancer” (Institut National de la Sante et de la Recherche Medicale …, priority 1999, dated 2007)

Legend:
[1] = system: ICB DNA sequence (ICB1/ICB2 boxes of the human topoisomerase IIα promoter); test: Gel retardation (acrylamide gel) binding of protein to 32P-labelled ICB oligonucleotides; details: 1 μg protein, 1 ng 32P-labelled oligonucleotide, competition with non-labelled oligonucleotides
Method: To test the ability of the 59 kDa protein to bind specifically to the ICB1 and/or ICB2 boxes, three tandem copies of ICB2 (ICB2X3, sequences described above) were labelled at the terminal end with 32 P phosphore using the T4 polynucleotide kinase (New England Biolabs) and […] (160 mCi/mmol, ICN Irvine, Calif., USA). To examine the specificity of the binding, oligonucleotides containing only one copy of the CCAAT box were synthesized:
The ICBP-59 protein (1 μg) was incubated with 1 ng of oligonucleotide and labelled at its terminal end by phosphorous ^32P in 12% glycerol, 12 mM HEPES-NaOH (pH 7.9), 60 mM KCl, 4 mM Tris-HCl (pH 7.9), 100 ng BSA, 0.6 mM DTT, and 100 ng poly(dI/dC) in 20 μl (Inouye et al., 1994). After a 30-minutes incubation at room temperature, the reaction mix was loaded in 6% polyacrylamide gels. In competition experiments, the quantity indicated of non-labelled oligonucleotides were added to the reaction mix 10 minutes before the addition of proteins. To examine the binding properties of ICBP90 with regard to the ICB2 box, we used the same protocol except that labelled oligonucleotide contained only one copy of the CCAAT sequence as described below:
Binding specificity was studied using a non-labelled nucleotide containing a GC box of the human topoisomerase IIa promoter: […]

[2] = biological target: T1, TIP60 (Tat Interactive Protein, 60 kDa) (Homo sapiens, UniProt Q92993); test: Double-hybrid technique, protein-protein interaction; type: binding
T1 construct: expressed in transfected cells; own knowledge
From the text: The TIP60 protein has very recently been described as being a coactivator of the nuclear receptor, especially the receptor for the androgens (Brady M E et al., 1999).

T1 sequence (Q92993 whole entry, species assumed): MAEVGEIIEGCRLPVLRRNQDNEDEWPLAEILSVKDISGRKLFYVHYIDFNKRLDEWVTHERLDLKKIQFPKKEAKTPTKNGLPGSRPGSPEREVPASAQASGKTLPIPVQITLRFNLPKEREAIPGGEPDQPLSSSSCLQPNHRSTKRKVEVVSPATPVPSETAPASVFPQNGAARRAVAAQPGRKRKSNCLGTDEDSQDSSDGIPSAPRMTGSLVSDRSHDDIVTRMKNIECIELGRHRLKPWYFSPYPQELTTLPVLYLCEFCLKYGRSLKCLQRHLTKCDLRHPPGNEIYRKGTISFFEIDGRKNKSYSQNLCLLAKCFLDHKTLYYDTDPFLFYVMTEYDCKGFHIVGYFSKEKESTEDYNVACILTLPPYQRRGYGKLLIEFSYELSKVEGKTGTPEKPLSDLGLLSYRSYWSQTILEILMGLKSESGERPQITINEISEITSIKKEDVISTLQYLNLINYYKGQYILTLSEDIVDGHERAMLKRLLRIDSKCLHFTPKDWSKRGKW

Molecule	ability to bind specifically an ICB DNA sequence [1]	interaction with TIP60 [2]
ICBP-59: 59 kDa C-terminal fragment, amino acids 263 to 793 of SEQ ID NO. 2 (protein, listed as Homo sapiens) DDSLNDCRIIFVDEVFKIERPGEGSPMVDNPMRRKSGPSCKHCKDDVNRLCRVCACHLCGGRQDPDKQLMCDECDMAFHIYCLDPPLSSVPSEDEWYCPECRNDASEVVLAGERLRESKKNAKMASATSSSQRDWGKGMACVGRTKECTIVPSNHYGPIPGIPVGTMWRFRVQVSESGVHRPHVAGIHGRSNDGSYSLVLAGGYEDDVDHGNFFTYTGSGGRDLSGNKRTAEQSCDQKLTNTNRALALNCFAPINDQEGAEAKDWRSGKPVRVVRNVKGGKNSKYAPAEGNRYDGIYKVVKYWPEKGKSGFLVWRYLLRRDDDEPGPWTKEGKDRIKKLGLTMQYPEGYLEALANREREKENSKREEEEQQEGGFASPRTGKGKWKRKSAGGGPSRAGSPRRTSKKTKVEPYSLTAQQSSLIREDKSNAKLWNEVLASLKDRPASGSPFQLFLSKVEETFQCICCQELVFRPITTVCQHNVCKDCLDRSFRAQVFSCPACRYDLGRSYAMQVNQPLQTVLNQLFPGYGNGR	can specifically bind an ICB DNA sequence	
ICBP90: Inverted CCAAT Box Binding Protein of 90 kDa, 793 amino acids, SEQ ID No.2 (protein, listed as Homo sapiens) MWIQVRTMDGRQTHTVDSLSRLTKVEELRRKIQELFHVEPGLQRLFYRGKQMEDGHTLFDYEVRLNDTIQLLVRQSLVLPHSTKERDSELSDTDSGCCLGQSESDKSSTHGEAAAETDSRPADEDMWDETELGLYKVNEYVDARDTNMGAWFEAQVVRVTRKAPSRDEPCSSTSRPALEEDVIYHVKYDDYPENGVVQMNSRDVRARARTIIKWQDLEVGQVVMLNYNPDNPKERGFWYDAEISRKRETRTARELYANVVLGDDSLNDCRIIFVDEVFKIERPGEGSPMVDNPMRRKSGPSCKHCKDDVNRLCRVCACHLCGGRQDPDKQLMCDECDMAFHIYCLDPPLSSVPSEDEWYCPECRNDASEVVLAGERLRESKKNAKMASATSSSQRDWGKGMACVGRTKECTIVPSNHYGPIPGIPVGTMWRFRVQVSESGVHRPHVAGIHGRSNDGSYSLVLAGGYEDDVDHGNFFTYTGSGGRDLSGNKRTAEQSCDQKLTNTNRALALNCFAPINDQEGAEAKDWRSGKPVRVVRNVKGGKNSKYAPAEGNRYDGIYKVVKYWPEKGKSGFLVWRYLLRRDDDEPGPWTKEGKDRIKKLGLTMQYPEGYLEALANREREKENSKREEEEQQEGGFASPRTGKGKWKRKSAGGGPSRAGSPRRTSKKTKVEPYSLTAQQSSLIREDKSNAKLWNEVLASLKDRPASGSPFQLFLSKVEETFQCICCQELVFRPITTVCQHNVCKDCLDRSFRAQVFSCPACRYDLGRSYAMQVNQPLQTVLNQLFPGYGNGR	identical from top to bottom to that observed for ICBP-59	existence of interactions
